Drawing on patent US20230174595A1, this text covers Kd and fold increase in affinity compared to AH for two substances.

The target of assay [1] is recombinant His-tagged HIV-1 gp120 Q769.h5 (Clade A) (HIV-1 strain Q769.h5).
Assay [2] shares this target. The assay is described as follows: SPR, His-tagged gp120 on NTA chip (FIG. 7). A general note: Surface plasmon resonance follows binding to a sensor surface in real time, without labels.

pKd: −log10 of the molar value.

For orientation: pKd means −log10 of the Kd, conventionally taken in molar units. Take “AvFc lectibody (Avaren fused via a linker to the Fc region of human IgG1) (Fc fusion)”: the pKd in assay [1] was 8.38. Moreover, the fold increase in affinity compared to AH in assay [2] worked out at 10 fold.

Regarding “actinohivin (AH), wild type (from UniProt Q9KWN0 47-160)”, the pKd in assay [1] was 7.53.
